Data: the domain aggregation screens of Martell et al. (2025)

Assay: soluble fraction after stress (log2 fold change); higher = more stays soluble; pooled small domains, quantitative proteomics
Settings: stress: 75 degC
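Also: 20 min heating vs room temperature control held 20 min.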

Row | Sequence | soluble fraction (log2)
1 | HMEDTFEYPVSVNGKLRFKIELPVSMEKDEIRNIVLNDERAKKWLATGTLTNLIVVPNRIINIVIK | -0.528
2 | HMEDTSTLSIKHKIKELINQESPQAILSDDKLVELLAAQGIKIARRTIAKYRETMNIPTSAERKRQKRPP | 0.0599
3 | HMEDVTLSLVVGEDLDGERLDVFLTWKLDRTRSQVQALIRDGKVRLEQGQRARPSMVVRSGMGISVSLEPR | -2.15
4 | HMEDYYKILGVSKDASIDDIKKSYRKLSLQNHPDRNKSPQASENFAKINSAYEVLSDQRKKRQYDMQQSM | -0.073
5 | HMEEAQWEFKWENTDSAEIHGPHSSSEMLKWQENSFFAKGVYVRKVGGDTTDFTDGKRIDFDLY | -0.705
6 | HMEEDPILVAQRFLNIFRQLHIFDQQRREEFNSMILALPPEIRGTFGVLPGGSVLQEYVDELEISKGMA | -1.11
7 | HMEEDPVISQAQRQALFKLAHDHFGQEEGNKVILRLIGEHGLRSTTNMTASVYKTVTDALIQVIESMVEG | -0.45
8 | HMEEEDELALFLREERKNYDLTLTDVHEKTGIPQKVLKEFQWGDAQLTDRQRYTLTQYVEEAREYFQENA | 0.161
9 | HMEEEVKVPKIKGLTEAEAKAKLKSEGLESGTARSAYSDTVEEGHIISQSIQEGTKVPKGTAVSYEVSKGK | 0.149
10 | HMEEGKVKRMAMDMVDAFYDKVSAMVDDNNDLGRSVVDAWDDEEENPPEYMLDDETRAILVNAGKIEPE | 0.298
11 | HMEEHSLRKQEMLRIIEALEQLTPKEKTVVVLYYFKGVLFKDIAMLLDVTEGRISQLHTAAMGRLKKLMD | -0.14
12 | HMEEIDLTPAEEILNKLPDNSRGYLIPTLNKIQNAYRFLPDPAMELLMEFFNVSRAEIFGVISFYPQLMI | -0.127
13 | HMEEIPYGVISAKAGAAAYDYIKKSIELGIEKKIDGVATAPIQKEAIHMAGISYIGHTEMYQGIT | 0.178
14 | HMEEKEIGQTLSVKIRENVLSKLDMTRDLEDEEVKHIIEHEIWLAAKKHYISLEERNSIKRGIFNSL | -0.895
15 | HMEELELTIDGEMVGRIDKQLGHHFDQFSRSQIQHWIEDGHVLVNGKQVKPKYKLLVGDHVQIIPEEPQK | 0.261
16 | HMEELIIQEELANKRLDIAISLLFPELTRAHAQKLIKEGSVLVDGKPRKASYPLTAGKRLSVTLPEPE | -0.172
17 | HMEELPVLHLKHVVVEGESLWKLAEQYLNDGTRWQEIYMLNRENISNPDLIREGQELNIQFLQGE | -0.382
18 | HMEENIKKDIEVPNIEGLTIDEAKKRLKEVNLNISIEDMEEKEGTEIITQQLPKAGIKVKEGVAIIAY | 0.227
19 | HMEEPEFEPYVVRLTAIALNVRTGPGTQYPVAMVIRGGGAFTIVAEENGFGLLKSGAGWIMLQHTERV | -2.61
20 | HMEEQELQLIQFPIASGSAWAGKAVRELILPPETLLVMLIRGTETMIPKGDTMVQEGDTAVLSASAYRDD | -0.472
21 | HMEEQKYEYHLGDVVYLGVDKYEILGITNNIVTLYDPEFPLLNKQLDFDEFEKRVKDNYANEHLKVT | -0.324
22 | HMEERDMKGSISDLVERYADQLTDEQLEEIVLGIKNGLLEEDVKSYFFLPAEDMRRIRTALEQVR | 0.0219
23 | HMEESEMIAFATVAHRIVGKPVEAVMRSYRNRDNIPADIAAIVSSKFTFSVTMAEASYRNPKKSYQVNSII | 0.275
24 | HMEETLLLRESVRSALAMLAPTLRITLEMYVYRQLSPTEIALRSGVSISMVRRRLGYGLYKLRTQLIDA | -0.121
25 | HMEFEIGQEDSKKSVKQFLYNTLRLSHGQVTALKRQERGILLNGERVFVTALLQEGDRLSLLLE | -1.7
26 | HMEFFIIDHNGQQAGPFSFDQLVQKGISPETLVWKQGMADWNPAWKVEELKAVLEAVEANQSNQKAQ | ≥ 1.04

Row | Sequence | soluble fraction (log2)
27 | HMEFGEVLAQLRQKRHISQAELGRAIFVSGGTISNYEKGVHFPDVEKLLLLADYFNVTTDYLLGRT | -2.65
28 | HMEFNQAVQDVNELSMQYAKSDVLWPEFEPKVLAFAKNELSQMPPNQWKFALQTFYNGLKQAA | -0.576
29 | HMEFPLSPHQYSVLRLMAQGLSNKQIAERLFLSENTVKGYVQEVLRRLGARNRLEAVMIANRRGWL | -0.316
30 | HMEFPYISGVDVGTISNKEFARFETTKASDIVIALDKSGIPFSARFGDSEIVLTYDGSYKEEVEEIIAKV | 0.172
31 | HMEFSYMDQGLERYRAFLETHGHGNVPESYHELKLVNFVAHIRKLYRMNLLSEERRRALDEAGFVF | -2.5
32 | HMEFVEERRNRMLDYIGENKRADVPELARHFDVTEVTIRRDLLILEQDGKLIRTHGGAMINR | -0.536
33 | HMEGDKEIPNVIGKSINDAKKILEQAGLKLGEVKKVNDSSVAKNVVLSTNPNAGTKVSAGDAVSITVAEG | 0.106
34 | HMEGGLIMDRIEKGLQSGVMPDLRGLNLKDALYLLESYVQVQVIGSGGVIKQSIKTGDKFIMGSVIKLEL | -0.138
35 | HMEGLATRLRFLRQARGLSYHALARLSGVTHTALHQIEAGKNIPGLDTAEKIAMALDVDPRWFAYGRGDPS | -3.18
36 | HMEGPALKVWKARYLRAAILEQLLSDRWDDRGGQPIRVVVNEPTNSLLIRIPRHLWPEAEKLLQELDQR | -2.34
37 | HMEGTEILVNIRKGMTKEEIASLLVSKGLVEDKNTFLVQTALYTSDRYPIQPGSYTLNTAQTPEEMLAVMT | -0.0935
38 | HMEGVNLTVQEAKQMAAIIAPLLKQGQSPYQIVTNHPELGISEKTLYNYIENDVFHEIAGITVMDL | -0.819
39 | HMEHIVNELDRKVIDYLQSHYDAKLNDIAQGIGVSKATATKSIRKLVQTGIVHVVGSSGTGTSYNLTE | -0.465
40 | HMEHVVFEVTESGELENNTAVKHVLNSFNNKSLNLAIDDFGTGYSNLRYIRDMMFGIIKIDRLFIKDINES | 0.324
41 | HMEIDFDKINSIFNDANKLYEEGDYFEANNLYKNIVSSNIISKDLYYNLGLSYAKIGSNGYAILWYERALN | -0.0259
42 | HMEIEEIDYGTFLQMVEDGVVEKIELTDTQIFLTSTVDNDDKVYTTGVMPDQDLTNRLIEAGVVNFGKVV | 0.134
43 | HMEIFSIEPDSYLGSGEEIASYYREGVTVIVNMAKLSDAESLRMVDFMSGLKLALLGNIKRITKHVYLLTP | -0.0777
44 | HMEIITIVSDINGKRIDAWLSEKLENYSRSFIQKLIQNENVKVNNNIVKANYKLKNGDAVAVSIPEPV | 0.179
45 | HMEILNYVVSDGQSGIRIDRYLSDSNEDLSRSYIQKLLKEQKVTVQGTFVKANYKVQAGDVITVEVPDMA | -0.884
46 | HMEILPAYRDIKKEALLGNINAEFKYVNLLLEHNYIEQAFNIIEDMKTRVDDNPEFEELKSRVADAYLMY | -1.56
47 | HMEILTLEELKRLMAKAKLKQNQISGHAGVSKQQISMILAGKRNITKDVSDNLKANLAEYFP | -0.651
48 | HMEILVSTRRHEIASLLSRKKRVSFFELFPEKTKEYVVATFLAILEMAKAREVNITQEDTFDEIIVEEA | -2.18
49 | HMEIPTPAELREKRIRMGLKQADVARMAGISQSMVARIESGSVDPRVSTLAKIVEVLQAAER | -0.488
50 | HMEISLEAKMAEVREQVRGLAGINFRTLLEMQASRSNIIVTFLAILELMKIGAIQIRQEEIFGEIIIDSRD | -0.104
51 | HMEISPGDVFKQLPGIGDDLSRRVVESLGIQSLEELESAAHDGRLEQVEGFGERRVQMVRAVLTGMLS | -0.00517
52 | HMEITTEDIAAQVASWIVRLSEDLTSTDRAALQIEFEQWQQTDSRRAEIAHKMLSLIGQAEQLRKT | -0.712

Row | Sequence | soluble fraction (log2)
53 | HMEKAISSLTLEEAKKRLEMVRSEKDASLQIYKETGSETARVTAENYGKEENSLLLHISEMSNIV | 0.425
54 | HMEKFTGELSQEEKNVLDALSHEEMHVDIIIKLTKLETSAVSSTLSLLEIKGLIKNIGGQNYIK | 0.543
55 | HMEKIIFEISEEGKRLDLYIAERTELTRTRIQQLIKDGNINVNNKKSKPSYKVEKNDFIEMIIPDE | -1.23
56 | HMEKINLIIEEDNNLRLDKVIAMQLQELSRTQIQDMINQGLVLVNQKKEKASYKTKLNDEIEITILD | -1.13
57 | HMEKKDTYTVKNGDSLWGIARTELGDGGRFREIYTLNADTIEAEAKKRGRSSSSEGHWIYPGSVLRLP | 0.304
58 | HMEKKGTVVIATVKGDIHDIGKNIVKVLLENYGFDVIDLGKDVPPEAVVEAVQQSGARLVGLSALM | -0.898
59 | HMEKKSKLVLAVLQGSDSDNTIRNLNERGFMVTVLSSTGGFLKKKSTTVMIGVEEDRLEEALDVLQKYAG | -0.549
60 | HMEKKTILIPPVITVRALAEISQIPVNRLLQELIKNGVFTSINEKIDFDTAVIIGADLNLDIQLL | -1.86
61 | HMEKLPRYILPGVPKVKSINISSALDGLVQDYSREFNISQKDIFQIALVEFFKKYGYHNAVKAVL | -2.29
62 | HMEKLSMLKIKELFRLAIEMNLSHRQIAQSLNVSHTVVNRYLKRFKKSNLSYETLLKLGDKEIISALYEH | -3.67
63 | HMEKPAQDVLASHREWMGEMIKAEHMTAKQVWRLLRERADIGVSYPTVKRYLRAHFQFGGPS | -1.57
64 | HMEKRLDYTFGLNKEQLLYLTKSIKDGDFYNVSFIDGTEKKLNRVGSTKEVHKYVNFLMTNDGIVKK | -0.389
65 | HMEKSLKELAQGVGQKVLTSGRPYHFDPMSAMERRVVHMTLMEMDGLRTESEGEGRFRHVVVFPA | -0.0884
66 | HMEKTEQMQVILDYIARYGEINNEKVQEILGVKRTRAYTILKQMVENGFVTTNGRGEEKKYYSIR | -1.25
67 | HMEKTIQIYDNIIIKDFAEKMEVSPSQVITKLIGLGVMANLNQPIDINSAVIVGKEFGFNVESM | -1.29
68 | HMEKVLPFEFERKFKTNHTAWDFFSNQAPPSYRKTVIHWILSAKQEITRISRLEKLIAASEQQKRI | -0.518
69 | HMEKYIVNQEEQGKRLDIYVVNKSSELTRTAVQRLIEQEHILVNGRKQKASYKVLEGDIITIERV | 0.753
70 | HMEKYTDDLEIAAEIARLETLMEGNGRVLIRPSGTEPLVRVMIEGNDIEQITKLAEDLAALLNKRF | -0.717
71 | HMELDFNSVYRQLNHEQKQAYQSIKSVLEQKISGSELDKKLKQAQQAFVAKFKENPNFEVPK | 0.608
72 | HMELDIGKKAIVIEKIDPEAGTGRVRIEGVDWGAKTADSSVIEKGETVVVKAKGAAFVTVAK | 0.0983
73 | HMELEAFPNPTDMFLSFTTKEKTPLAIYDINGKQVLYVEQITSSSKINVSKLSEGVYFAKTNQGTVKWVK | -2.35
74 | HMELEQLKSQLTGFLKANREQIFTAQNLADGLRMTDSQGYKQVVNALNASVRDGDVIDIKNGYQYNKN | 0.0444
75 | HMELEWENYSLAGEIKTTVMLYQNRRNGLPEEAKQKADALMKQLKQAVIENDAQKVEKIDDALTALLFE | -0.564
76 | HMELGYTPNNLRSVRAKYGLTQKQVAEITGLKTWHPVNRWEAPVEAAYHADMPHTKWLKLLDELSSR | -1.45
77 | HMELKYIDYDEALVVYAKTVTASGGGLSGVKDEGGIRKVLDFVQNDLYYPTFVDKLTYLVFGL | 0.168
